Five molecules from PMC3418249, “Binding of Translationally Controlled Tumour Protein to the N-Terminal Domain of HDM2 Is Inhibited by Nutlin-3” (PLoS ONE, 2012) can be followed below.

No end group written: not given here. FAM = carboxyfluorescein

Holding throughout (settings): both partners purified
For assay [1], the target named is T1, purified HDM2 (1–125) (human, UniProt Q00987 1-125).
T1 construct: source: expressed as GST fusion (pGEX-6P-1), purified (GSTrap, on-column cleavage with precission protease, monoS)
As to the kind of experiment: pull-down; biotinylated peptides (10 µg) on streptavidin Dynabeads M-280, incubated with purified HDM2 (1–125) (15 µM) or TCTP (15 or 30 µM) 4 h at 4°C; Western blot; repeated with DMSO or Nutlin-3 (2/20/200 µM).

Assay [2] deals with T2, recombinant full-length TCTP, purified (human (cDNA from AGS cells), UniProt P13693 1-172).
T2 construct: TCTP, called recombinant full-length TCTP; also called recombinant TCTP; TCTP protein; source: expressed as GST fusion (pGEX-6P-1), purified (GSTrap, on-column cleavage with precission protease, monoQ)
T2 sequence (looked up): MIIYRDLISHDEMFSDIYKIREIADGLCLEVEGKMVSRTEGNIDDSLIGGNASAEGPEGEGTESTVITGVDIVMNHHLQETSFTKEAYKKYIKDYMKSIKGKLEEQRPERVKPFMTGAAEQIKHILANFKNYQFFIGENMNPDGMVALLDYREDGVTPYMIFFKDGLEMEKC
The assay is described as above.

The target of assay [3] is T2, recombinant full-length TCTP, purified. As to the kind of experiment: pull-down; cobalt beads coated with 20 µM his-tagged HDM2 (17–125), 4 h at 4°C with 7 µM TCTP protein, with or without 200 µM Nutlin-3; Western blot.
The target in assay [4] is T1, purified HDM2 (1–125). Put plainly: fluorescence polarisation; competition: 50 nM FAM-12-1 peptide, 250 nM HDM2 (1–125), competitors TH2/TH3 (50/200/600 µM), control peptide (600 µM), Nutlin-3 (200 µM), p53 peptide; PBS-0.005% Tween-20.

B1: TH3 peptide (TCTP residues 107–133) (peptide)
peptide: GGGSRPERVKPFMTGAAEQIKHILANFKNYQ
modifications: also: biotin, position not given here
notes: spacer at the N-terminus; source: synthetic peptide (Mimotopes)
Regarding B1, in the assay with purified HDM2 (1–125) [1], the binding result was “binds”.

B2: HDM2 α2 helix peptide (residues 43–65) (peptide)
peptide: GGGSAQKDTYTMKEVLFYLGQYIMTKR
modifications: biotin (position not given)
notes: spacer at the N-terminus; HDM2 α2 helix, residues 43-65; source: synthetic peptide (Mimotopes)
As for B2, in assay [2], the binding result was “binds”.

B3: recombinant his-tagged HDM2 (residues 17–125) (domain or fragment, human, UniProt Q00987 17-125, looked up)
chain: SQIPASEQETLVRPKPLLLKLLKSVGAQKDTYTMKEVLFYLGQYIMTKRLYDEKQQHIVYCSNDLLGDLFGVPSFSVKEHRKIYTMIYRNLVVVNQQESSDSGTSVSEN
notes: also called recombinant HDM2 N-terminal domain; source: recombinant
Take B3: in assay [3], the binding result was “binds”.

B4: carboxyfluorescein (FAM) labeled 12-1 peptide (peptide)
peptide: {FAM}-RFMDYWEGL-NH2
notes: also called FAM-labeled p53 peptide (12.1); fluorescently labelled p53 peptide
Take B4: the binding result with purified HDM2 (1–125) [4] was “binds”.

B5: TH2 peptide (TCTP residues 81–110) (peptide)
peptide: GGGSTSFTKEAYKKYIKDYMKSIKGKLEEQRPER
modifications: also: biotin, position not given here
notes: spacer at the N-terminus; TCTP residues 81-110; source: synthetic peptide (Mimotopes)
Regarding B5, in the assay with purified HDM2 (1–125) [1], the binding result is recorded as “binds”.
